The values below come from patent US20220396632A1 (VERSEAU THERAPEUTICS, published 2022).

Numbering of substitutions follows the chain as printed.

For test [1], the target named is T1, PSGL-1 endogenously expressed on HL-60 cells (UniProt Q14242 42-412).
T1 construct: whole, on cells
T1 sequence (looked up): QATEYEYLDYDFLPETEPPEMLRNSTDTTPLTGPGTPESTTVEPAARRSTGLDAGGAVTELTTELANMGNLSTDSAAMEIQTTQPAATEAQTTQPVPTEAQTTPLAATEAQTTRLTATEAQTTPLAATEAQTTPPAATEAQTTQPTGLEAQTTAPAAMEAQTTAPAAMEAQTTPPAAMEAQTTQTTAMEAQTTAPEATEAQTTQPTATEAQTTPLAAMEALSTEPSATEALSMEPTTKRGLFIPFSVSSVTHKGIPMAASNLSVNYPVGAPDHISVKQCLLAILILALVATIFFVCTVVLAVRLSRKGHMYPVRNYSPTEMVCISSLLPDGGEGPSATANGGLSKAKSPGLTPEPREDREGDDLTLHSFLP
As to the kind of experiment: flow cytometry on HL-60 cells. On the procedure:
(§1) A typical flow cytometry assay was performed by resuspending HL-60 cells in FACS buffer (5% FBS and 0.05% Sodium Azide in PBS, pH 7.2) on ice, pelleting cells by centrifugation at 500×g for 3 min, washing cells with FACS buffer, and then blocking Fc receptors on the cells with Fc block (human TruStain FcX™, BioLegend Cat. #422302) on ice for 10 min. After washing, 50,000 cells/50 ul in FACS buffer was added to each well of a 96-well round bottomed plate (Costar, Cat. #3797), and 50 ul of serially diluted (0.06 nM-1.0 uM) test or isotype control antibody was added into duplicate wells. The plate was covered and incubated on ice for 1 h. After washing, Phycoerythrin (PE) conjugated anti-human IgG secondary antibody (Abcam; Cat. #ab99825) was added to each well and the plate incubated in the dark on ice for 30 min. After washing, the cells were fixed (1% paraformaldhyde).
On the technique in general: A flow cytometer gives signals particle by particle.

Test [2] addresses T1, PSGL-1 endogenously expressed on HL-60 …. Put plainly: flow cytometry on HL-60 cells; against parent 19L04. The procedure: as §1
In test [3] the target is T2, Recombinant human PSGL-1(ECD)-hFc1 (R&D Systems, Cat. 3345-PS) (human, UniProt Q14242 42-305).
T2 construct: Bought; Gln42-Val295 counted on AAC50061; also called PSGL-1-Fc; PSGL-1-hFc1 chimera; not shown: human IgG1 Fc, Pro100-Lys330
T2 sequence: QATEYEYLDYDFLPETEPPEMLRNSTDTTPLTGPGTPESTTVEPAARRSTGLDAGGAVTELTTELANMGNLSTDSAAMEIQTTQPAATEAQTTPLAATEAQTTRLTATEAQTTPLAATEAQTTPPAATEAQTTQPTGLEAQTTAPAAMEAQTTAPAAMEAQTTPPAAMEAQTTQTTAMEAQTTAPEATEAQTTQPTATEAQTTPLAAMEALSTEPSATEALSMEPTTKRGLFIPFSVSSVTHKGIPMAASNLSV
Put plainly: blocking ELISA vs L-selectin-Fc. On the procedure: (§2) A typical selectin blocking ELISA assay involved coating high binding half-well plates (Corning, Cat. #3690) with 2.5 ug/mL/25 ul per well of recombinant PSGL-1-Fc protein (R&D Systems, Cat #3345-PS) in PBS, pH 7.4, overnight at 4° C. […] Antibody (test and controls) was serially diluted (25 ul/well) in duplicate in assay buffer (3% BSA in wash buffer) into appropriate wells and the plate incubated for 45 min at 37° C. […] The plate was washed ×3 and HRP-conjugated streptavidin was added in assay buffer [25 ul per well; (Jackson Immunoresearch, Cat. #016-030-084)] and the plate incubated for 45 min at 37° C. […] For each antibody, an IC50 value was determined from sigmoidal fitted titration curves.

The target of test [4] is T2, Recombinant human PSGL-1(ECD)-hFc1 (R&D …). Put plainly: blocking ELISA vs VISTA-Fc, pH 6.0. For orientation: ELISA stands for enzyme-linked immunosorbent assay.
For test [5], the target named is T3, Scrambled Y46,48,51(SO3) PSGL-1(42-62) biotin peptide (sulfotyrosine at peptide positions 5, 7 and 10; C-terminal Lys-biotin).
T3 construct: also called scrambled sulfated peptide: biotin
T3 peptide: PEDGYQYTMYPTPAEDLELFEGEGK
As to the kind of experiment: ELISA, immobilized biotin peptide. Put shortly:
(§3)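 In this ELISA, half-well high binding plates (Corning Cat. #3690) received 3 ug/mL/25 ul per well of biotin-tagged PSGL-1 peptides covering residues 42 to 62, diluted in PBS, pH 7.4, and coated overnight at 4° C. Duplicate readings for each antibody were averaged and the average assay background was subtracted. PSGL-1 protein or peptide was the positive control.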

Test [6] deals with T4, Biotin sY51 PSGL-1(42-62) peptide (human, sulfotyrosine at Y51; C-terminal Lys-biotin).
T4 construct: also called Y51(SO3) PSGL-1(42-62)
T4 peptide: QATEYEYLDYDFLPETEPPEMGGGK
Put plainly: ELISA, immobilized biotin peptide. An outline of the steps:
as §3

In test [7] the target is T5, Biotin PSGL-1(42-62) peptide, unmodified (human, C-terminal Lys-biotin).
T5 construct: Residues 42-62 followed by GGGK-biotin; also called WT; wild-type
T5 peptide: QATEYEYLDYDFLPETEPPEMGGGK
Put plainly: ELISA, immobilized biotin peptide. An outline of the steps:
as §3

The target of test [8] is T6, Cynomolgus PSGL-1(ECD)-HIS (cynomolgus macaque).
T6 construct: also called Cyno PSGL1-His
T6 chain: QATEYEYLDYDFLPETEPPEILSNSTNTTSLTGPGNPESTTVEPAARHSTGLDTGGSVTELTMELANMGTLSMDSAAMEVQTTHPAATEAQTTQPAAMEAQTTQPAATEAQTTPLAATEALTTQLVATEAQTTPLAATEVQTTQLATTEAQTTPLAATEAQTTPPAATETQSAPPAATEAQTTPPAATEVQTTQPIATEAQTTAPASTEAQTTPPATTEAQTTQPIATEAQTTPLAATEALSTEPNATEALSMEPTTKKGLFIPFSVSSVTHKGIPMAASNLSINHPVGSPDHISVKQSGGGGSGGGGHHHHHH
As to the kind of experiment: ELISA, plate cyno PSGL-1(ECD)-HIS. On the procedure: Antibody binding to plate-immobilized cyno PSGL-1(ECD) was determined either at one concentration (20 nM) or by generating full antibody binding curves (0.003-200 nM). A typical ELISA was performed by overnight coating at 4° C. with 3 ug/mL/25 ul per well of recombinant cyno PSGL-1(ECD) protein in PBS, pH 7.4, in high binding half-well plates (Corning Cat. #3690). […] Anti-PSGL-1 IgG in assay buffer (blocking buffer containing 0.05% tween 20) was added into test and control wells (20 nM/25 ul/well) and the plate incubated for 45 min at 37° C. […] The plate was incubated for 45 min at 37° C., and mAb bound to plate-immobilized target determined at A450 nm using HRP substrate (3,3′,5,5′-tetramethylbenzidine (TMB)). For each antibody, duplicate values were averaged and assay background subtracted.

Test [9] addresses T2, Recombinant human PSGL-1(ECD)-hFc1 (R&D …). Put plainly: blocking ELISA vs P-selectin-Fc. The procedure:
as §2

Test [10] deals with T1, PSGL-1 endogenously expressed on HL-60 …. Put plainly: flow cytometry on HL-60 cells; against parent 20I15. On the procedure: as §1

B1: 19L04.002 (antibody, IgG4, V domains shown)
VH: QIQLVQSGSELKKPGASVKVSCKASGYTFTTYGMSWVRQAPGQGLKWMGWINTYSGVPTYADDFKGRFVFSLDTSVSTAYLQISSLKAEDTAVYFCARHYYGSHYFDYWGQGTLVTVSS
VL: DIVMTQSPDSLAVSLGERATIRCKSSQSLLSSSNQKNYLAWYQQKPGQPPKLLVYFASTRESGVPDRFSGSGSGTDFTLTISSLQAEDVAVYYCQQHYFSPLTFGQGTKLEIK
notes: Humanised
With B1, in [1], the response was half-maximal at 2.5 nM (EC50). Further, the “HL-60 EC50 (normalized)” value in test [2] was 1.3 fold.

B2: 19L04.008 (antibody, IgG4, V domains shown)
VH: QIQLVQSGAEVKKPGASVKVSCKASGYTFTTYGMSWVRQAPGQGLKWMGWINTYSGVPTYADDFKGRFTFTLDTSISTAYMELSRLRSDDTAVYFCARHYYGSHYFDYWGQGTLVTVSS
VL: B1 VL with I21L, D66V, Y93F
notes: Humanised
As for B2, a half-maximal response in [1] (EC50) required 2.9 nM. Also, the “HL-60 EC50 (normalized)” value in test [2] was determined as 1.5 fold.

B3: 19L04.004 (antibody, IgG4, V domains shown)
VH: B2 VH
VL: B1 VL
notes: Humanised
Turning to B3, the EC50 (as a rule, the concentration needed to bring the measured effect to its halfway point) in test [1] was determined as 8.9 nM. Also, the “HL-60 EC50 (normalized)” value in test [2] was determined as 4.5 fold.

B4: 19L04.006 (antibody, IgG4, V domains shown)
VH: B1 VH
VL: B1 VL with I21L, D66V, Y93F
notes: Humanised
B4 had an EC50 in test [1] of 3.5 nM. Also, the “HL-60 EC50 (normalized)” value in test [2] is 1.8 fold.

B5: 18L13 (antibody, V domains shown)
VH: EVQLQQSGAELVRPGASVKLSCTASGFNIKDDFMHWVKQRPEQGLEWIGRIDPASGKTEYVPKFQDKATLTADTSSNTAYLQLSSLTSEDTAVYYCARRIAYWGQGTLVTVSA
VL: DVVMTQTPLTLSVTIGQPASISCKSSQSLLHSNGKTYLNWLLQRPGQSPKLLIYLVSKLESGLPDRFSGSGSGTDFSLKISRVEAEDLGVYYCLQTTHFPQTFGGGTKLEIK
notes: Mouse hybridoma mAb; only variable domains given
Regarding B5, the “% max Block” value in test [3], in test [4] and in test [9] was 0% throughout. For the same molecule, the EC50 in [5] was found to be 2.63 nM; in test [6] it was 0.914 nM; in test [7], 0.764 nM; in [8] it was 0.76 nM.

B6: 20I15.003 (antibody, IgG4, V domains shown)
VH: EVKLVESGGGLVQPGGSLRLSCAASGFTFTDYYMSWVRQAPGKGLEWLGFIRNKANGYTTEYSASVKGRFTISRDNSQNSLYLQMNSLKTEDTAVYYCARTYLRRGYFDVWGQGTLVTVSS
VL: DIQLTQSPSTLSASVGDRVTITCRASKSVSTSGYSYMHWFQQKPGKAPKLLIYLASNLESGVPSRFSGSGSGTEFTLTISSLQPDDFATYYCQHSRELPLTFGQGTKLEIK
notes: Humanised
B6 yielded an EC50 in [1] of 1.6 nM. Further, in test [10], the “HL-60 EC50 (normalized)” value was 1.1 fold.

B7: 20I15.007 (antibody, IgG4, V domains shown)
VH: B6 VH
VL: B6 VL with Q3V, E74D
notes: Humanised
The molecule B7 yielded an EC50 in [1] of 0.8 nM. For the same molecule, the “HL-60 EC50 (normalized)” value in test [10] was determined as 0.6 fold.

B8: 20I15.004 (antibody, IgG4, V domains shown)
VH: B6 VH with N56Q
VL: B6 VL
notes: Humanised
In the case of B8, the EC50 in [1] came to 1 nM. In addition, the “HL-60 EC50 (normalized)” value in test [10] was 0.7 fold.

B9: 20I15.006 (antibody, IgG4, V domains shown)
VH: B6 VH with K3Q, N56S, Q78K
VL: B6 VL with Q3V, E74D
notes: Humanised
As for B9, the EC50 in test [1] is 0.8 nM. Also, the “HL-60 EC50 (normalized)” value in test [10] came to 0.6 fold.

B10: 20I15.008 (antibody, IgG4, V domains shown)
VH: B6 VH with N56Q
VL: B6 VL with Q3V, E74D
notes: Humanised
In test [1], B10 came in with an EC50 of 1.6 nM. Moreover, the “HL-60 EC50 (normalized)” value in [10] was determined as 1.1 fold.

B11: 20I15.005 (antibody, IgG4, V domains shown)
VH: B6 VH with K3Q, Q78K
VL: B6 VL with Q3V, E74D
notes: Humanised
Regarding B11, the EC50 in test [1] stood at 1.3 nM. Moreover, in test [10], the “HL-60 EC50 (normalized)” value is 0.9 fold.
